From article PMC314469, “Protein Interaction Networks by Proteome Peptide Scanning” (PLoS Biology, 2004)

T1: Boi2 SH3 (BOI2_YEAST), P39969
T1 chain: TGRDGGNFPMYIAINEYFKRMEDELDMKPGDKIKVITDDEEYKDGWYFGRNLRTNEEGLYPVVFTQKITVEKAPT

T2: Rvs167 SH3 (RV167_YEAST), P39743
T2 chain: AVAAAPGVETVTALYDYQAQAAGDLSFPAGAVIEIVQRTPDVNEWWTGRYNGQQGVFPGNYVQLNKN

T3: Yhr016c SH3 (YSC84_YEAST), P32793
T3 chain: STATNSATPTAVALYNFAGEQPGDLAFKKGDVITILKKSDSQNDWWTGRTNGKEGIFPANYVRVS

T4: Boi1 SH3 (BOI1_YEAST), P38041
T4 chain: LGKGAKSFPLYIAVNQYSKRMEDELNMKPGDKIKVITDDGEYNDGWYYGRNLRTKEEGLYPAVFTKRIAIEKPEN

T5: Yfr024 SH3 (LSB3_YEAST), P43603
T5 chain: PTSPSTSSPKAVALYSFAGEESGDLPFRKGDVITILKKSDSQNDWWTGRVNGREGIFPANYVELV

B1: YIL115C 910-923 (peptide)
chain: VENPFLPAKEERTG
B2: YBR163W 375-388 (peptide)
chain: VDAPINPTKILTFI
B3: YGL181W 247-260 (peptide)
chain: TSTPPLPRRRATTS
B4: YDR085C 535-548 (peptide)
chain: VETPPKPIKKDVRF
B5: YDR239C 54-67 (peptide)
chain: TSAPDIPPRSPNRN
B6: YPL249C 279-292 (peptide)
chain: TSSPPLPPRQNVAT
B7: YKR084C 145-158 (peptide)
chain: TTVPTKPKKPHDIS
B8: YPL006W 878-891 (peptide)
chain: VSPPSFPSRRSETS
B9: YGR097W 176-189 (peptide)
chain: TTAPRGPKKAQPAQ
B10: YNL298W 513-526 (peptide)
chain: VAKPKKPARPTMST
B11: YNL094W 505-518 (peptide)
chain: VAPPPLPNRQLPNL
B12: YFR028C 120-133 (peptide)
chain: VDPPFMPFRDAGYS
B13: YCR042C 478-491 (peptide)
chain: VFLPTAPSKHMDFA
B14: YJL091C 152-165 (peptide)
chain: VDFPIFPRRFAKVE
B15: YML109W 711-724 (peptide)
chain: VERPSSPTKTITTE
B16: YPR171W 333-346 (peptide)
chain: TSKPSLPEKPQKLR
B17: YAL011W 347-360 (peptide)
chain: TTRPAPPSKAKDVA

Molecular target: T1, Boi2 SH3 (BOI2_YEAST), P39969
Assay: SPOT array

normalised SPOT signal, Boehringer light units (BLU); mean over the file's lines of this peptide	Binder
15.7	B1
69.3	B2
1870	B3
70.6	B4
35900	B5
30.4	B6
22.9	B7
117	B8
43.9	B9
77.1	B10
73.2	B11
37.7	B12
46.3	B13
135	B14
45.2	B15
19.2	B16
72	B17

Molecular target: T2, Rvs167 SH3 (RV167_YEAST), P39743
Assay: SPOT array

normalised SPOT signal, Boehringer light units (BLU); mean over the file's lines of this peptide	Binder
0	B1
67.9	B2
55700	B3
86.3	B4
26700	B5
16700	B6
18.4	B7
1730	B8
89.5	B9
86.9	B10
32500	B11
23.3	B12
208	B13
512	B14
24.4	B15
63.1	B16
125	B17

Molecular target: T3, Yhr016c SH3 (YSC84_YEAST), P32793
Assay: SPOT array

normalised SPOT signal, Boehringer light units (BLU); mean over the file's lines of this peptide	Binder
188	B1
34	B2
122000	B3
372	B4
14800	B5
47000	B6
114	B7
42100	B8
264	B9
4950	B10
27300	B11
-0	B12
44.5	B13
1680	B14
159	B15
319	B16
251	B17

Molecular target: T4, Boi1 SH3 (BOI1_YEAST), P38041
Assay: SPOT array

normalised SPOT signal, Boehringer light units (BLU); mean over the file's lines of this peptide	Binder
7.6	B1
52.9	B2
16400	B3
65	B4
65600	B5
37.2	B6
81.6	B7
703	B8
138	B9
71.1	B10
1470	B11
70.9	B12
100	B13
2050	B14
39.5	B15
252	B16
61.3	B17

Molecular target: T5, Yfr024 SH3 (LSB3_YEAST), P43603
Assay: SPOT array

normalised SPOT signal, Boehringer light units (BLU); mean over the file's lines of this peptide	Binder
82.3	B1
0	B2
36200	B3
677	B4
14500	B5
25300	B6
1540	B7
40300	B8
169	B9
9080	B10
32400	B11
579	B12
242	B13
16100	B14
0	B15
11600	B16
767	B17
